Molecular target: T1, RBD from MERS-CoV (MERS-CoV, UniProt K9N5Q8 367-606)
T1 construct: domain: RBD
Experiment: fluorescence response of the sensor (FIG. 12)

B1: VHH72 noK V104NBDxK (VHH72 noK V104K functionalized with NBDx-NHS at the V104K position) (VHH)
VHH: QVQLQESGGGLVQAGGSLRLSCAASGRTFSEYAMGWFRQAPGREREFVATISWSGGSTYYTDSVRGRFTISRDNARNTVYLQMNSLRPDDTAVYYCAAAGLGTKVSEWDYDYDYWGQGTQVTVSS
notes: also called nanoX; NanoX
binding result: no binding
